# B1: ATG2A-mCherry (expressed as 3XFLAG-TEV-ATG2A-mCherry) [not stated (the printed accession is a human entry)] / GST-tagged LC3B [not stated (the printed accession is a human entry)] (parent complex)
# chain 1: MSRWLWPWSNCVKERVCRYLLHHYLGHFFQEHLSLDQLSLDLYKGSVALRDIHLEIWSVNEVLESMESPLELVEGFVGSIEVAVPWAALLTDHCTVRVSGLQLTLQPRRGPAPGAADSQSWASCMTTSLQLAQECLRDGLPEPSEPPQPLEGLEMFAQTIETVLRRIKVTFLDTVVRVEHSPGDGERGVAVEVRVQRLEYCDEAVRDPSQAPPVDVHQPPAFLHKLLQLAGVRLHYEELPAQEEPPEPPLQIGSCSGYMELMVKLKQNEAFPGPKLEVAGQLGSLHLLLTPRQLQQLQELLSAVSLTDHEGLADKLNKSRPLGAEDLWLIEQDLNQQLQAGAVAEPLSPDPLTNPLLNLDNTDLFFSMAGLTSSVASALSELSLSDVDLASSVRSDMASRRLSAQAHPAGKMAPNPLLDTMRPDSLLKMTLGGVTLTLLQTSAPSSGPPDLATHFFTEFDATKDGPFGSRDFHHLRPRFQRACPCSHVRLTGTAVQLSWELRTGSRGRRTTSMEVHFGQLEVLECLWPRGTSEPEYTEILTFPGTLGSQASARPCAHLRHTQILRRVPKSRPRRSVACHCHSELALDLANFQADVELGALDRLAALLRLATVPAEPPAGLLTEPLPAMEQQTVFRLSAPRATLRLRFPIADLRPEPDPWAGQAVRAEQLRLELSEPQFRSELSSGPGPPVPTHLELTCSDLHGIYEDGGKPPVPCLRVSKALDPKSTGRKYFLPQVVVTVNPQSSSTQWEVAPEKGEELELSVESPCELREPEPSPFSSKRTMYETEEMVIPGDPEEMRTFQSRTLALSRCSLEVILPSVHIFLPSKEVYESIYNRINNDLLMWEPADLLPTPDPAAQPSGFPGPSGFWHDSFKMCKSAFKLANCFDLTPDSDSDDEDAHFFSVGASGGPQAAAPEAPSLHLQSTFSTLVTVLKGRITALCETKDEGGKRLEAVHGELVLDMEHGTLFSVSQYCGQPGLGYFCLEAEKATLYHRAAVDDYPLPSHLDLPSFAPPAQLAPTIYPSEEGVTERGASGRKGQGRGPHMLSTAVRIHLDPHKNVKEFLVTLRLHKATLRHYMALPEQSWHSQLLEFLDVLDDPVLGYLPPTVITILHTHLFSCSVDYRPLYLPVRVLITAETFTLSSNIIMDTSTFLLRFILDDSALYLSDKCEVETLDLRRDYVCVLDVDLLELVIKTWKGSTEGKLSQPLFELRCSNNVVHVHSCADSCALLVNLLQYVMSTGDLHPPPRPPSPTEIAGQKLSESPASLPSCPPVETALINQRDLADALLDTERSLRELAQPSGGHLPQASPISVYLFPGERSGAPPPSPPVGGPAGSLGSCSEEKEDEREEEGDGDTLDSDEFCILDAPGLGIPPRDGEPVVTQLHPGPIVVRDGYFSRPIGSTDLLRAPAHFPVPSTRVVLREVSLVWHLYGGRDFGPHPGHRARTGLSGPRSSPSRCSGPNRPQNSWRTQGGSGRQHHVLMEIQLSKVSFQHEVYPAEPATGPAAPSQELEERPLSRQVFIVQELEVRDRLASSQINKFLYLHTSERMPRRAHSNMLTIKALHVAPTTNLGGPECCLRVSLMPLRLNVDQDALFFLKDFFTSLVAGINPVVPGETSAEARPETRAQPSSPLEGQAEGVETTGSQEAPGGGHSPSPPDQQPIYFREFRFTSEVPIWLDYHGKHVTMDQVGTFAGLLIGLAQLNCSELKLKRLCCRHGLLGVDKVLGYALNEWLQDIRKNQLPGLLGGVGPMHSVVQLFQGFRDLLWLPIEQYRKDGRLMRGLQRGAASFGSSTASAALELSNRLVQAIQATAETVYDILSPAAPVSRSLQDKRSARRLRRGQQPADLREGVAKAYDTVREGILDTAQTICDVASRGHEQKGLTGAVGGVIRQLPPTVVKPLILATEATSSLLGGMRNQIVPDAHKDHALKWRSDSAQD
# chain 2: not shown
# Variants of: B1
# Assay: bead-based binding assay (GSH beads, confocal imaging of mCherry fluorescence); 5 µM GST-tagged bait on Glutathione Sepharose 4B beads; 0.5 µM ATG2A-mCherry or ATG2A-LIR-mCherry; SEC150 buffer; N = 3; parent: 17; read off a plot
row,Variant,response [%]
1,"chain 1 F1362A, chain 1 C1363A, chain 1 I1364A, chain 1 L1365A",~0.7
